Numbering of substitutions follows the chain as printed. Like-named read-outs stand apart in the source and are kept apart here.

Test [1] addresses T1, IL-2Rα (CD25) on primary human CD8^+ CD25^+ T cells (human, UniProt P01589 22-272).
T1 sequence (looked up): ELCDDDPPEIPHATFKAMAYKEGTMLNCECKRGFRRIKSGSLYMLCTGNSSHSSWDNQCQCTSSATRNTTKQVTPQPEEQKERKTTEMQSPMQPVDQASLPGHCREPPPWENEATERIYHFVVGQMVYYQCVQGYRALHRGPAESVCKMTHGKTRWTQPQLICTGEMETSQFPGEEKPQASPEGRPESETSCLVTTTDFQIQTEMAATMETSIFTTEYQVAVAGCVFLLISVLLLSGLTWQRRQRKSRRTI
Briefly: cell-based or functional assay.

The target of test [2] is T2, IL-2Rβ IH-Biotin (Homo sapiens (Human), UniProt P14784 27-240, biotin on the avi tag (enzymatic labeling with His-BirA)).
T2 construct: also called IL-2Rβ IH (in house); CD122
T2 sequence: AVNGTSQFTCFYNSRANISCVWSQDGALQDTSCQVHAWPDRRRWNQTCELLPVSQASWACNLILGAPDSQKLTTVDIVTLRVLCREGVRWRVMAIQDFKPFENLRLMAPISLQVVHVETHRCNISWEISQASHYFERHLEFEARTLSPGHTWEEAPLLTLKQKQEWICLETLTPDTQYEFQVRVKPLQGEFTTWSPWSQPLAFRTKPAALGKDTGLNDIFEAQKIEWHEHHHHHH
In words: BLI (Octet Red96): biotinylated receptor on SA sensor, 100 nM Fc fusion in solution, 1:1 model. As to the method:
A BLI affinity assay was performed according to the prior art (Estep, P, et al., High throughput solution based measurement of antibody-antigen affinity and epitope binning. MAbs, 2013.5(2): p. 270-8). […] Kinetic analysis was performed on the assay results using a 1:1 binding model.
On the technique in general: Biolayer interferometry detects binding as a change in optical thickness at a sensor tip.

The target of test [3] is T1, IL-2Rα (CD25) on primary human CD8^+ …. Briefly: cell-based or functional assay. The source holds these as a separate data set.
In test [4] the target is T3, IL-2Rα-Biotin (Homo sapiens (Human), UniProt P01589 22-217, biotin on the avi tag (enzymatic labeling with His-BirA)).
T3 construct: also called CD25; IL-2Rα receptor
T3 sequence: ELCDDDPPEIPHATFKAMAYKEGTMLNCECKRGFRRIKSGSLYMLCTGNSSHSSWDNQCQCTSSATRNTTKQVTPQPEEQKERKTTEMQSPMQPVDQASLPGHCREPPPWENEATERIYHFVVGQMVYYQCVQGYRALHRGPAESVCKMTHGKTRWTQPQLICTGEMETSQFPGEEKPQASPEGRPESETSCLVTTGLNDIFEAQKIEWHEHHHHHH
In words: BLI (Octet Red96): biotinylated receptor on SA sensor, 100 nM Fc fusion in solution.

For test [5], the target named is T3, IL-2Rα-Biotin. Briefly: flow cytometry: yeast-displayed IL-2 stained with 50 nM IL-2Rα-Biotin. On the procedure: (§1) 1. 1×10⁶ cells from each sample were centrifuged to discard the supernatant, and washed with FACS buffer once for later use; [0133] 2. the cells were added to 100 μL of FACS buffer containing 50 nM IL-2Rα-Biotin and Anti Flag antibody, and incubated at room temperature for 30 min; [0134] 3. the mixture was centrifuged at 3000 rpm, 4° C. for 3 min, and washed with pre-cooled FACS buffer twice; [0135] 4. 100 μL of FACS buffer containing SA-PE and goat anti-mouse conjugated with Alex Flour-647 was added, and the mixture was incubated on ice for 20 min away from light; [0136] 5. after being washed twice with pre-cooled FACS buffer, the cells were resuspended in 100 μL of buffer, and the binding level of IL-2^mutant to IL-2Rα was assayed by a flow cytometer (BD, ACCURI C6). […] 1. […] 2. the cells were added to 100 μL of FACS buffer containing IL-2Rβ IH-Biotin (30 nM-100 nM) and Anti Flag antibody, and incubated at room temperature for 30 min; [0139] 3. following steps 3-5 described above, the binding level of IL-2^mutant to IL-2Rβ was assayed.
(In flow cytometry, cells or beads pass a laser one at a time.)

For test [6], the target named is T2, IL-2Rβ IH-Biotin. Briefly: flow cytometry: yeast-displayed IL-2 stained with IL-2Rβ IH-Biotin (30 nM-100 nM). On the procedure:
as §1

B1: IL-2^3X-FC fusion protein (Fc fusion, not shown: small tags and cut ends; a dimerising Fc or GST)
chain: APTSSSTKKTQLQLEHLLLDLQMILNGINNYKNPKLTDMLTFEFYMPKKATELKHLQCLERELKPLEEVLNLAQSKNFHLRPRDLISNINVIVLELKGSETTFMCEYADETATIVEFLNRWITFSQSIISTLT
Regarding B1, the entries for the “EC50 (read off the curve) of p-STAT5 activation” value in test [1] and in test [3] were ~7 nM and ~6 nM, respectively. In the test with IL-2Rβ IH-Biotin [2], this molecule gave a Kd of 16 nM. Besides, in the test with IL-2Rα-Biotin [4], the binding result is recorded as “no binding (tested: 100 nM)”.

B2: IL-2^3x displayed on the surface of yeasts (ligand, not shown: small tags and cut ends)
chain: B1 chain
notes: Control on yeast cells
Turning to B2, the binding result in the test with IL-2Rα-Biotin [5] was “no binding (tested: 50 nM)”.

B3: IL-2^H9 displayed on the surface of yeasts (ligand, not shown: small tags and cut ends)
chain: B1 chain with D38R, E43K, R61E, L80F, R81D, L85V, I86V, I92F
notes: Control on yeast cells
Regarding B3, the binding result with IL-2Rβ IH-Biotin [6] is given as “binds”.

In general, Kd refers to the concentration at which binding is half-saturated. High values mean lower affinity, low ones higher affinity.

Source of the values: US20210221863A1 (Innovent, published 2021).
